Assay results reported in patent publication US20100015126A1, “Methods of Binding of Cross-Beta Structures By Chaperones” (priority 2006, published 2010).

Experiments:
[1] = molecular target: Hypothetical protein/Heat shock 70 kDa protein 5 (glucose-regulated protein, 78 kDa = GRP78 = BiP = HSPA5), as identified in eluates (human) (UniProt P11021); experiment: BiP-Sepharose pull-down, RA synovial fluid sample 6B, 1 M NaCl eluate, MS; BiP may stem from the column
[2] = molecular target: Hypothetical protein/Heat shock 70 kDa protein 5 (glucose-regulated protein, 78 kDa = GRP78 = BiP = HSPA5), as identified in eluates (human) (UniProt P11021); experiment: BiP-Sepharose pull-down, RA patient IV synovial fluid (B6), MS of urea eluate; BiP may stem from the column
[3] = molecular target: Hypothetical protein/Heat shock 70 kDa protein 5 (glucose-regulated protein, 78 kDa = GRP78 = BiP = HSPA5), as identified in eluates (human) (UniProt P11021); experiment: BiP-Sepharose pull-down, RA synovial fluid sample 4B, 1 M NaCl eluate, MS; BiP may stem from the column
[4] = molecular target: Vitronectin precursor (Serum-spreading factor/S-protein) (human) (UniProt P04004); experiment: BiP-Sepharose pull-down, RA synovial fluid sample 6B, 1 M NaCl eluate, MS; may be indirect
Sequence of Vitronectin precursor (Serum-spreading factor/S-protein) (human) (P04004 20-478 limits assumed): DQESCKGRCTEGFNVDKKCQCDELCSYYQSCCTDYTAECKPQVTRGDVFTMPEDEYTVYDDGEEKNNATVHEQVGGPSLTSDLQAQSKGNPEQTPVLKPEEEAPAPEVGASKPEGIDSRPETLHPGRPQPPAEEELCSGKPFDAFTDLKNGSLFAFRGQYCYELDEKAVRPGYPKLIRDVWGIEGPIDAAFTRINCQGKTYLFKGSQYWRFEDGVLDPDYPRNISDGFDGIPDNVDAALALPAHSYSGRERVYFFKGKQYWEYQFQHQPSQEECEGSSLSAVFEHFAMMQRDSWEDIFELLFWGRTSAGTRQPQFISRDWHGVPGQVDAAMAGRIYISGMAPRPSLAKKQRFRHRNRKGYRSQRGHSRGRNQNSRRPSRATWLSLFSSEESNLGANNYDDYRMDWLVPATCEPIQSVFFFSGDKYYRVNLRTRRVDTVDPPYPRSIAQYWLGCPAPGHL

[5] = molecular target: Heat shock 70 kDa protein 1L (human) (UniProt P34931); experiment: as above
Sequence of Heat shock 70 kDa protein 1L (human) (P34931 whole entry, canonical isoform): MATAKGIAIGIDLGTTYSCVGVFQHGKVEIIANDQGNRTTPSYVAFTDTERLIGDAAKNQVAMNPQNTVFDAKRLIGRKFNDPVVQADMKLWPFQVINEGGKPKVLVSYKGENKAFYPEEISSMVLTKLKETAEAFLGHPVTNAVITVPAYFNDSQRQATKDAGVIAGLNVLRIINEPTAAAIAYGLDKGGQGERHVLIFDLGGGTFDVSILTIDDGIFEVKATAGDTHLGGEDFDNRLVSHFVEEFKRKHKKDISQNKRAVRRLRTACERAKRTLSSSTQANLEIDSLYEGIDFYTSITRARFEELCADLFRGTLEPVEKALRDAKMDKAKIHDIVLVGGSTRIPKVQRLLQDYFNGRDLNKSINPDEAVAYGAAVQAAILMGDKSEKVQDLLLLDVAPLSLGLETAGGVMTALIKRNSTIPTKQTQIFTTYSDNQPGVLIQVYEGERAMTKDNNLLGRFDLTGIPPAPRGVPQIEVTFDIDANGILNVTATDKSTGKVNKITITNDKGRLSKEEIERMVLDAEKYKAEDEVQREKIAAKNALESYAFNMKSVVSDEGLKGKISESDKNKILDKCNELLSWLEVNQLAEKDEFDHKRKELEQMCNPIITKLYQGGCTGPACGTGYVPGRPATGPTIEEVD

[6] = molecular target: 187 kDa protein/Complement component 3 (human) (UniProt P01024); experiment: BiP-Sepharose pull-down, RA patient III serum (B4), MS of urea eluate; may be indirect
Sequence of 187 kDa protein/Complement component 3 (human) (P01024 23-1663 limits assumed): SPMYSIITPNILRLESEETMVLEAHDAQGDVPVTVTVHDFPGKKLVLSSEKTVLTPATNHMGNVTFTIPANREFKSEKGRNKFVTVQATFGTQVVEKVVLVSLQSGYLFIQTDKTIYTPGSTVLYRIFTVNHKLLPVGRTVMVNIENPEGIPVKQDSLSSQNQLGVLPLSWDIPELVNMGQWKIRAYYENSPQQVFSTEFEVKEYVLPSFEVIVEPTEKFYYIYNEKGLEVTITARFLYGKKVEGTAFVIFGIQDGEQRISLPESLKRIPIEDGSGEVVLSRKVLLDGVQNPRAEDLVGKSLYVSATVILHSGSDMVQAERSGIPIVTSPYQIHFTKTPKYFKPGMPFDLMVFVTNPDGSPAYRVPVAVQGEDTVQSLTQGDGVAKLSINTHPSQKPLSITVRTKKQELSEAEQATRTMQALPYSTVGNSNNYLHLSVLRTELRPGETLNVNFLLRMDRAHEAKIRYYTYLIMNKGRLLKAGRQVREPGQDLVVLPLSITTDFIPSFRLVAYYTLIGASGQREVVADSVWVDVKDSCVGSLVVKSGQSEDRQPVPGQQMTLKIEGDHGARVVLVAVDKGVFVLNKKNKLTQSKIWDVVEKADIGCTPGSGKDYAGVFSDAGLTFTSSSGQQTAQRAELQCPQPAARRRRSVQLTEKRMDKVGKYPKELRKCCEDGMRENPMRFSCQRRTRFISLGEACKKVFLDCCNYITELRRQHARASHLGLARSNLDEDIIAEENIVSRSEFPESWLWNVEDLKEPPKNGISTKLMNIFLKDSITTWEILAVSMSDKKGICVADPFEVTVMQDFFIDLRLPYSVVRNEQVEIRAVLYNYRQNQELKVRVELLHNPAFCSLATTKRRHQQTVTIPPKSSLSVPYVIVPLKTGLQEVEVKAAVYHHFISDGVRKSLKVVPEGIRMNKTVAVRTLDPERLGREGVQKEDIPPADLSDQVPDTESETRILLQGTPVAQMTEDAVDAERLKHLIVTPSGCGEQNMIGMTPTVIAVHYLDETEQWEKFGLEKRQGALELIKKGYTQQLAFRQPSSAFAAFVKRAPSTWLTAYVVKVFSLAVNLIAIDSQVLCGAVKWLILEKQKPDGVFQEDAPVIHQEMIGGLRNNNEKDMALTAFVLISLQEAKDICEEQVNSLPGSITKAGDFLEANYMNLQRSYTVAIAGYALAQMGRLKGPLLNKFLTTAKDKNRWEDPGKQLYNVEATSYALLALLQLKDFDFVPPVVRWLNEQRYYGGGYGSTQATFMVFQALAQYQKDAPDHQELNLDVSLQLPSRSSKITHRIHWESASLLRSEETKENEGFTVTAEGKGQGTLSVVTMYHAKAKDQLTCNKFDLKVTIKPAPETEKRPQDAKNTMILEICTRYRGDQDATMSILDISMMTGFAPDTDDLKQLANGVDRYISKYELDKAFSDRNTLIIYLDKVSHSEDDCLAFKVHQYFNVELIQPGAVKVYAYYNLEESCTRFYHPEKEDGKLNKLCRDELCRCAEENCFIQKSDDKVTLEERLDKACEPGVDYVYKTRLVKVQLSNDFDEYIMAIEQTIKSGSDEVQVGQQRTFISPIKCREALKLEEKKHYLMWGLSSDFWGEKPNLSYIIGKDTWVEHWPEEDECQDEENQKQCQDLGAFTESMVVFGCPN

[7] = molecular target: IGLC1 protein (immunoglobulin lambda C1)/immunoglobulin lambda chain/immunoglobulin C1 segment protein (fragment) (human) (UniProt P0CG04); experiment: as above
Sequence of IGLC1 protein (immunoglobulin lambda C1)/immunoglobulin lambda chain/immunoglobulin C1 segment protein (fragment) (human) (P0CG04 whole entry, the tested form may be a part): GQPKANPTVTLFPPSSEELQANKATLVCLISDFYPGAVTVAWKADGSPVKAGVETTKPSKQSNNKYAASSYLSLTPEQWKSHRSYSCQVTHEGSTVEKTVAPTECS

[8] = molecular target: CD5 antigen-like precursor (SP-alpha, CT-2, IgM-associated peptide)/CD5 molecule-like (human) (UniProt O43866); experiment: as above
[9] = molecular target: Isoform 1 of Plectin-1 (human) (UniProt Q15149); experiment: as above
[10] = molecular target: Phosphatase and actin regulator 4 isoform 1/Hypothetical protein DKFZp686L07205 (human) (UniProt Q8IZ21); experiment: as above
[11] = molecular target: Immunoglobulin J chain, Immunoglobulin J polypeptide (human) (UniProt P01591); experiment: as above
[12] = molecular target: Complement component 4 binding protein, alpha, C4b-binding protein alpha chain precursor (C4bp) (human) (UniProt P04003); experiment: as above
Sequence of Complement component 4 binding protein, alpha, C4b-binding protein alpha chain precursor (C4bp) (human) (P04003 49-597 limits assumed): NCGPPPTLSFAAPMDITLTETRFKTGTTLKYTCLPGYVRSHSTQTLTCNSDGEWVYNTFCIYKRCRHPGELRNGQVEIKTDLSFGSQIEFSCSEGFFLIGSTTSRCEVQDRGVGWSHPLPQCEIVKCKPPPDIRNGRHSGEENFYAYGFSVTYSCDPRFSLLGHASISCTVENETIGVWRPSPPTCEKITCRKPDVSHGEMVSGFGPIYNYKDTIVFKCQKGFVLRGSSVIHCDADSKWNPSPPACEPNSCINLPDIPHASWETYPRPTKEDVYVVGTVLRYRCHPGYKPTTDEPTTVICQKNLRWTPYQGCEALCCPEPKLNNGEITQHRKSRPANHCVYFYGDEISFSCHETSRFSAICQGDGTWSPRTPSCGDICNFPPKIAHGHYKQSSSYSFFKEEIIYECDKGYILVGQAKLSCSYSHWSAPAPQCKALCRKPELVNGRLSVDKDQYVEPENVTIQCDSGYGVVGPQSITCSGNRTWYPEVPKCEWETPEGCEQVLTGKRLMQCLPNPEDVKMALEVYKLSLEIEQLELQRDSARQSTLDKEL

[13] = molecular target: Alpha-1-antitrypsin precursor/Serpin peptidase inhibitor, clade A, member 1 (human) (UniProt P01009); experiment: as above
[14] = molecular target: Vitronectin precursor (Serum-spreading factor/S-protein) (human) (UniProt P04004); experiment: as above
[15] = molecular target: Ig lambda chain V-III region SH (human) (UniProt P01714); experiment: as above
Sequence of Ig lambda chain V-III region SH (human) (P01714 21-112 limits assumed): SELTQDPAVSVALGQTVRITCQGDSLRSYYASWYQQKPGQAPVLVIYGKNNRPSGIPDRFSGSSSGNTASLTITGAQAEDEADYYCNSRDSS

[16] = molecular target: Immunoglobulin lambda variable 3-25/V2-17 protein (Fragment) (human) (UniProt P01717); experiment: as above
Sequence of Immunoglobulin lambda variable 3-25/V2-17 protein (Fragment) (human) (P01717 20-112 limits assumed): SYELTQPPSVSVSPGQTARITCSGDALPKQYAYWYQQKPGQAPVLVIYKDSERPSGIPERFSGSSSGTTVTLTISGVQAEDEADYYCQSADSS

[17] = molecular target: Hypothetical protein/Heat shock 70 kDa protein 5 (glucose-regulated protein, 78 kDa = GRP78 = BiP = HSPA5), as identified in eluates (human) (UniProt P11021); experiment: BiP-Sepharose pull-down, RA synovial fluid sample 1B, 1 M NaCl eluate, MS; BiP may stem from the column
[18] = molecular target: 187 kDa protein/Complement component 3 (human) (UniProt P01024); experiment: BiP-Sepharose pull-down, RA synovial fluid sample 5B, 1 M NaCl eluate, MS; may be indirect
[19] = molecular target: Histidine-rich glycoprotein precursor (human) (UniProt P04196); experiment: as above
[20] = molecular target: Serotransferrin precursor (human) (UniProt P02787); experiment: as above
Sequence of Serotransferrin precursor (human) (P02787 20-698 limits assumed): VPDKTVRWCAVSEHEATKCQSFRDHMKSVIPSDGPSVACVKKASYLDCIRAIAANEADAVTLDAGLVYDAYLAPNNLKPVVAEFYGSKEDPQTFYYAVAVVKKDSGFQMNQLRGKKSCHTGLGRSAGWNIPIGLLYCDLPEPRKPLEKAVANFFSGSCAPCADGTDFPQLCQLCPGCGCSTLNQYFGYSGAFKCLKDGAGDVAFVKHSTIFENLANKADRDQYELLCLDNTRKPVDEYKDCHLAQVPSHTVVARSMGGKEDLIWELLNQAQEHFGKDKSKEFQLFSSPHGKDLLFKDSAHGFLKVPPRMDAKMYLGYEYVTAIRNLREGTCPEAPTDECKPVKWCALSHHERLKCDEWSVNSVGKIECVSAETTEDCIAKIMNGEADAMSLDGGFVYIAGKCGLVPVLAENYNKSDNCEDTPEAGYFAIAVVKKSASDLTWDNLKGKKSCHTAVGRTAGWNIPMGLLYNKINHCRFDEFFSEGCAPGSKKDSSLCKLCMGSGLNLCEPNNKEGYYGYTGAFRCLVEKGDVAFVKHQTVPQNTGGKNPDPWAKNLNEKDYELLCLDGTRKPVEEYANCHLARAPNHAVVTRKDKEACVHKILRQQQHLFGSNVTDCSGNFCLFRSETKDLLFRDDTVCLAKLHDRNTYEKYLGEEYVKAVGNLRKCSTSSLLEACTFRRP

[21] = molecular target: Vitronectin precursor (Serum-spreading factor/S-protein) (human) (UniProt P04004); experiment: as above
[22] = molecular target: 25 kDa protein/immunoglobulin lambda chain/rheumatoid factor G9 light chain (lambda V3)/IGLC1 protein (human) (UniProt P0CG04); experiment: as above
[23] = molecular target: Heat shock 70 kDa protein 1L (human) (UniProt P34931); experiment: as above
[24] = molecular target: fibronectin 1 isoform 4 preproprotein (human) (UniProt P02751); experiment: as above
[25] = molecular target: Complement factor H-related protein 3 precursor (human) (UniProt Q02985); experiment: BiP-Sepharose pull-down, AL amyloidosis patient II plasma (B3), MS of urea eluate; may be indirect
[26] = molecular target: IGLC1 protein (immunoglobulin lambda C1)/immunoglobulin lambda chain/immunoglobulin C1 segment protein (fragment) (human) (UniProt P0CG04); experiment: as above
[27] = molecular target: Hypothetical protein/Ig kappa chain V-II region RPMI 6410 precursor (human) (UniProt P06310); experiment: as above
Sequence of Hypothetical protein/Ig kappa chain V-II region RPMI 6410 precursor (human) (P06310 21-120): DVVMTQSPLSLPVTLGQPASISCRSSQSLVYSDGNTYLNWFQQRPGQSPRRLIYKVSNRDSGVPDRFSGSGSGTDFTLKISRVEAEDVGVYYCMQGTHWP

[28] = molecular target: Isoform 1 of Plectin-1 (human) (UniProt Q15149); experiment: as above

Sequence of Hypothetical protein/Heat shock 70 kDa protein 5 (glucose-regulated protein, 78 kDa = GRP78 = BiP = HSPA5), as identified in eluates (human) (P11021 19-654 limits assumed): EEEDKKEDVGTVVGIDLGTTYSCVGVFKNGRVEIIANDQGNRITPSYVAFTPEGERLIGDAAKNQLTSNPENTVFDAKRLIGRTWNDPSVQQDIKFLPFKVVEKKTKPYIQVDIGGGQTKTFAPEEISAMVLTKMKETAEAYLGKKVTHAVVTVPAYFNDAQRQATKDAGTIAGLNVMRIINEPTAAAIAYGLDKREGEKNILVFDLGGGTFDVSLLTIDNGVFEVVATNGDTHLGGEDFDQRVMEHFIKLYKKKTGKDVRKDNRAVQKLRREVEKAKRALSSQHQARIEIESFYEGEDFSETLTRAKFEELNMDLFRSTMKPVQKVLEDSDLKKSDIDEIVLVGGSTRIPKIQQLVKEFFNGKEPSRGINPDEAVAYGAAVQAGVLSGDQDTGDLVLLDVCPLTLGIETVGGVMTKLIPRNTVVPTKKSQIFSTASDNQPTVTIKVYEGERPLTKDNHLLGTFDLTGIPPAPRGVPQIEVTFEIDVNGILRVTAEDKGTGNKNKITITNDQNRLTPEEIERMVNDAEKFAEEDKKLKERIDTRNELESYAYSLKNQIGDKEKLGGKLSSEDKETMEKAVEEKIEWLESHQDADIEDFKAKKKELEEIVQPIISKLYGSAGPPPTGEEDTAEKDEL

“recombinant human BiP with C-terminal linker, FLAG-tag and His-tag (BiP-FLAG-His) (from UniProt P11021 19-654)” showed a # of unique peptides [1] of 17 peptides, a # of peptides [2] of 31 peptides and a # of unique peptides [3] of 10 peptides. For the same substance, the # of unique peptides [4] was 1 peptides, the # of unique peptides [5] was 1 peptides and the # of peptides [6] was 9 peptides. For the same substance, the # of peptides [7] was 2 peptides, the # of peptides [8] was 1 peptides and the # of peptides [9] was 2 peptides. It also gave a # of peptides [10] of 2 peptides, a # of peptides [11] of 5 peptides and a # of peptides [12] of 7 peptides. For the same substance, the # of peptides [13] was 1 peptides, the # of peptides [14] was 4 peptides and the # of peptides [15] was 2 peptides. For the same substance, the # of peptides [16] was 10 peptides, the # of unique peptides [17] was 21 peptides and the # of unique peptides [18] was 1 peptides. For the same substance, the # of unique peptides [19] was 1 peptides, the # of unique peptides [20] was 1 peptides and the # of unique peptides [21] was 2 peptides. For the same substance, the # of unique peptides [22] was 1 peptides, the # of unique peptides [23] was 1 peptides and the # of unique peptides [24] was 2 peptides. The # of peptides [25] was 1 peptides, the # of peptides [26] was 1 peptides and the # of peptides [27] was 1 peptides. For the same substance, the # of peptides [28] was 1 peptides.
